Assay results as given in publication PMC5634629, “Heterodimerization of two pore domain K^+ channel TASK1 and TALK2 in living heterologous expression systems” (PLoS ONE, 2017).
Each block holds one binder with its values, some of them ahead of it.

Assays:
CFP-TALK2 = target: T1, CFP-TALK2 (human, UniProt Q96T54-3 1-332); experiment: FRET or BRET; acceptor photobleaching FRET (CFP donor, YFP acceptor) in HEK293 cells, confocal microscope; cDNA ratio CFP:YFP 1:1; E_FRET = percent increase in CFP emission after YFP photobleaching; conditions: partners not purified
T1 construct: human TALK2 (KCNK17), full-length cDNA NM_031460.3; The end of the tag is read from the order in the construct's name; also called KCNK17; source: HEK293, transiently transfected, in living cells; not shown: CFP, N-terminal, kept
T1 sequence (looked up): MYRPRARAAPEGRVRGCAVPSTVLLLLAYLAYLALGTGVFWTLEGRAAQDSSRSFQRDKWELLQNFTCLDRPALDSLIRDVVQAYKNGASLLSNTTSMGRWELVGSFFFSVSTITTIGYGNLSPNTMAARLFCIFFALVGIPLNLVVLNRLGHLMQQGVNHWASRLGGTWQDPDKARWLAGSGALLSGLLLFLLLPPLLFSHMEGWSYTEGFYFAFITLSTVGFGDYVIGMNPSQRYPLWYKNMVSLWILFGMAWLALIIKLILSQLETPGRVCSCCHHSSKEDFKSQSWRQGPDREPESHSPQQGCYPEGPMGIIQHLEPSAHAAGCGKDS

CFP-TASK1 = target: T2, CFP-TASK1 (human, UniProt O14649 1-394); experiment: as above; conditions: partners not purified
T2 construct: human TASK1 (KCNK3), full-length cDNA NM_002246.2; The end of the tag is read from the order in the construct's name; also called KCNK3; source: HEK293, transiently transfected, in living cells; not shown: CFP, N-terminal, kept

E_FRET (CFP-TALK2): 8.6%
B1: TALK2-YFP (natural protein, human, UniProt Q96T54-3 1-332, looked up)
chain: T1 sequence (looked up)
notes: human TALK2 (KCNK17), full-length cDNA NM_031460.3; The end of the tag is read from the order in the construct's name; also called KCNK17; source: HEK293, transiently transfected, in living cells; not shown: YFP, C-terminal, kept

E_FRET (CFP-TASK1): 9.8%
E_FRET (CFP-TALK2): 7.8%
B2: TASK1-YFP (natural protein, human, UniProt O14649 1-394, looked up)
chain: MKRQNVRTLALIVCTFTYLLVGAAVFDALESEPELIERQRLELRQQELRARYNLSQGGYEELERVVLRLKPHKAGVQWRFAGSFYFAITVITTIGYGHAAPSTDGGKVFCMFYALLGIPLTLVMFQSLGERINTLVRYLLHRAKKGLGMRRADVSMANMVLIGFFSCISTLCIGAAAFSHYEHWTFFQAYYYCFITLTTIGFGDYVALQKDQALQTQPQYVAFSFVYILTGLTVIGAFLNLVVLRFMTMNAEDEKRDAEHRALLTRNGQAGGGGGGGSAHTTDTASSTAAAGGGGFRNVYAEVLHFQSMCSCLWYKSREKLQYSIPMIIPRDLSTSDTCVEQSHSSPGGGGRYSDTPSRRCLCSGAPRSAISSVSTGLHSLSTFRGLMKRRSSV
notes: human TASK1 (KCNK3), full-length cDNA NM_002246.2; The end of the tag is read from the order in the construct's name; also called KCNK3; source: HEK293, transiently transfected, in living cells; not shown: YFP, C-terminal, kept
